Measurements as given in patent US20150359847A1, “METHOD AND COMPOSITION FOR CONFERRING NEUROPROTECTION” (BLOOD SYSTEMS RESEARCH INSTITUTE, priority 2014, published 2015).

Test system: phospho-AKT(Ser473) in SH-SY5Y cells
Assay: Akt (Ser473) phosphorylation in differentiated SH-SY5Y cells (antibody array, western blot, Phosflow)
Format: cell-based, human
Description: SH-SY5Y cells were obtained from ATCC (Cat# CRL-2266, Manassas, Va.) and were cultured in DMEM and 10% FBS up to passage 10. For differentiation of SH-SY5Y cells into a neuronal phenotype, cells were first plated in DMEEM+10% FBS for 24 hrs before exchanging media in DMEM+1% FBS 10 μM retinoic acid. Differentiation was performed for 3 days before experimentation. Hippocampal neurons were prepared according to the protocol by Beaudoin et al. (Nature Protocols 2012; 7(9):1741-1754) with minor modifications. In brief, after trypsin digestion of hippocampi isolated from P1 mouse pups single cell suspensions was created by trituration and plated onto Biocoat™ poly-D-lysine coated 12-well plates (Cat#354470, BD Biosciences, San Jose, Calif.). 2 pups were used per well and cell suspensions were incubated for 10 minutes per well for a total of 6 wells. The serial incubation allowed for variation in cell densities applicable to different experiments but also contributed to the reduction in non-neuronal cells. Typically wells 1-2 were pooled for western blotting and wells 4-5 were used for imaging following treatments. After the initial plating cells were incubated for 2 hrs before media was completely exchanged for maintenance media that was supplemented with 1 μM of the anti-mitotic cytosine arabinoside in order to further reduce non-neuronal cells. For western blot, cells were cultured for 7 days before experimentation. Half of maintenance media was exchanged on day 2 and day 5. For morphology experiments, treatments were initiated upon the introduction of maintenance media and was renewed 48 hrs later for a further 24 hrs of treatment. Experiments were terminated by fixation for 20 minutes with 4% paraformaldehyde after which cells were stored at 4° C. in PBS prior to staining protocols.
Pathscan Antibody™ array kits were purchased from Cell Signaling Technologies (Danvers, Mass.). PathScan® RTK signaling antibody array kit (Fluorescent Readout, Cat#7949) and PathScan™ Akt signaling antibody array kit (Fluorescent Readout, Cat#9700) were performed as per manufacturer's instructions. Imaging was performed on a LI-COR Odyssey™ infrared scanner and pixel densities measured by in house LI-COR Image™ suite software.
After experimentation, SH-SY5Y cells were detached from culture ware via trypsin digestion and rapidly mixed with an equal volume of BD cytofix fixation buffer (Cat#554655. BD Biosciences, San Jose, Calif.). After wash steps with PBS cells were permeabilized with BD phosflow Perm Buffer III (Cat#558050. BD Biosciences, San Jose, Calif.) and incubated on ice for 30 mins. After washing in BD stain buffer (Cat#554657. BD Biosciences, San Jose, Calif.) cells were counted and 1×10^6 cells were used antibody incubation. Negative IgG compensation control was obtained using ABC control beads (Cat# A10344. Life Technologies, Grand Island, N.Y.). Antibody incubations were conducted for 30 mins at RT in the dark. Following wash steps the volume was adjusted to 500 μl and results obtained using and LSR II flow cytometer and analyzed using Flowjo™ cytometric analytical software version 8.8.7.
Cell lysates for western blotting were prepared with RIPA buffer (Cat#89900. Thermofisher Scientific, Rockford, Ill.) supplemented with phosphatase inhibitor cocktail 2 (Cat# P5726. Sigma, St Louis, Mo.), phosphatase inhibitor cocktail 3 (Cat# P0044. Sigma, St Louis, Mo.) and complete protease inhibitor (Cat#1862209. Thermofisher Scientific, Rockford, Ill.). Complete homogenization was ensured by brief sonication using a Branson Sonifier 150, (Branson Ultrasonics Corporation, Danbury, Conn.). Protein content was quantified with a Pierce BCA protein assay kit per manufacturer's instructions (Cat#23225. Thermofisher Scientific, Rockford, Ill.).
Lysates was analyzed in conjuncture with the LI-COR Odyssey™ infra-red imaging system. […]

B1: TIMP3: Recombinant tissue inhibitor of matrix metalloproteinase-3, a soluble protein released by MSCs, obtained from Amgen Inc. (protein)
chain: CTCSPSHPQDAFCNSDIVIRAKVVGKKLVKEGPFGTLVYTIKQMKMYRGFTKMPHVQYIHTEASESLCGLKLEVNKYQYLLTGRVYDGKMYTGLCNFVERWDQLTLSQRKGLNYRYHLGCNCKIKSCYYLPCFVTSKNECLWTDMLSNFGYPGYQSKHYACIRQKGGYCSWYRGWAPPDKSIINATDP
1 μg/ml TIMP3, 15 mins
  p-AKT(Ser473), Phosflow cytometry: activates p-AKT(Ser^473)
  p-AKT(Ser473), western blot: activates p-AKT(Ser^473)
  phospho-AKT(Ser473), fluorescent antibody signaling array: activates phospho-AKT(Ser^473)
1 μg/ml TIMP3, 45 minutes
  p-AKT(Ser473), Phosflow cytometry: activates p-AKT(Ser^473)
